The labels stand for the following.
B1: 79 (protein)
chain: MATTTTPSTLIATLESHLTPTLAFTSPTTSPTQPALHLIPPTTLTKLRNLGPGRVKDMHMLGHSRQIISHIPVAAPPQICSRFNDAIHAATMTNTAKFSVLAVLPTDGMEAAKELARCVSKYRFVGGVIGLNRGLRINGEGWEELWGLAERLRIPIMFREMWPLAFEIVDYQHHLPYSALGPILTQLHTSHTSSPLPLVRLYLSSVFDHYPSLRLVLAHPGSLPSLVPRIESLINSIPATDKPKRSFLDVWQHNIYLTTADAQDMSSLRALLEQIPVDRVLYASNYPFEERGNELMNELRESEFLTNIEWERVAWVNAETLFNLKEAGTKEARQLTTIPSSRS
modifications: Pyrenophora teres
B2: 87 (protein, listed as Novosphingobium sp.)
chain: MASDIATAADLQTGGRQGYLRIATEEAFATRDQIDVYLRMVRDGTADRGMTSLWGFYAQSPSARATQIIERLLDLGEQRLADMDAAGIDKAVLALTSPGVQPLLDMEEARRIAGNANDRLAERCAAHPDRFIGMTAVAPQDPQWSAREILRGATQLGFKGVQINSHTQGRYLDEPFFDPIFRALGDVGQPLYIHPGTPPDSMIGPLLDAGLDGAIYGFGVETGMHLLRLITAGIFDRYPDLQIMVGHMGEALPYWLYRLDYMHQAGIRSQRYERMRPLKRTIAGYFRSNVLVTCSGMAWEPAIQFARQVMGEDRVMYAMDYPYQYEADEVRALDVMDLSPESKRKFFQTNAERWFDL
B3: 3 (protein, listed as Lactobacillus plantarum)
chain: MAKLITVEEHFESAAVTAAMRQAVGNAVLPAVSPALRQYMRDNLPSPAIMQDTQHERLAFMAQYGIDMQVLSYGNSSPQNLSPEQAVPLSQLANDELAKAVVAHPDRYAGLAVLPVGDPQAAVAELNRAVTTLGLRGVLLKGNYQNKFFDEPFFLPIFEAAAALDVPVYFHPSFIPQAVTSHYFESNQWSDVVTGILSSAGYGWHMDVGIQVIRMIASGIFDKLPGLKLISGHWGELVPLFLERLDDELTTYTDLQYPFSTYYRHNVYVTPSGILSAPQLQFMLAEMGADHLMYSIDYPYKQPETSGSFLDIADLTDEQRAQIAFGTATTLFKL
B4: 76 (protein, listed as Polymorphum gilvum)
chain: MAKKIDIFNHIWPEPFFKALIAHIGEMTDITMRSGAVPMMTNLDRRFEVMDMFGPDYMQVLSLASPPLEKLADPAKALELSRIGSDSLAELCQRYPERFPAFIGTAPLSNPAAVVGECRRAIEDLGAAGMQIFTNVAGKPLDLAEFEPFFEYMASAGKPVWLHPARGEAFADYQTEKRSEYEIWWTFGWPYETSAAMARLVFSRMFDKYPGLKVITHHAGGMVPFFEGRVGPGWDQMGARTTDRDLAAVRKALKRPHLDYFKEFYADTASFGSRKAIEHAIEFFGEDRVLFASDAPFDPEGGPMYIRETMRCIDSLDLTDAQRRKIYHGNATALLGLSL
B5: 81 (protein, listed as Verticillium dahliae)
chain: MAASTKPKVVDIHTHMYPPSYIDILTSRTAIPVVRTFPQAADPRLILLDAEQQALDAALQDPTAKPPGRPLTSHYASLDQKIHFMDTHSIDISVVSLANPWLDFIEPKEAAATARSVNDEFEAMCASQPGRLFFFAALPLTAPLPALLEAVRHVAELEHCRGVILGTSGLGSGLDDPELVPVLEAVAAAALTVFLHPHYGLPNDVWGPRASAEYGHVLPLALGFPMETTIAVARMYLAGVFDRVPALRMLLAHSGGTLPFLAGRIESCILHDGQLVAEGKVGAARRTIWDVLREQVYLDAVIYSEIGLKAAIAASGGADRLMFGTDHPFFPPLGTDEQAKKESRINAGGSRPMITGNAMINGHGGLCNHITQSDYQDVVL
B6: 85 (protein, listed as Maritimibacter alkaliphilus)
chain: MAADRKPGLVSVEEGFMIPEVVAELSRIAGGVPSMKSGPIAGPFMDDLLDIGKGRVARMDADGVAVQILALAAPGVQKFDPDTALALSRLTNDRLAEAIAAHPARFGGLAAAPPQAAREGAKELDRAITTLGLNGLIVNSHTNDLYLDDPSFWPLLEAAEALDVPVYLHPREPAAGIEGGLMAMTGFTVGWAYAVETGTHLLRMIAAGVFDRFPRLRIVLGHLGEMIPFMLDRIDNRYPFEMGVTGAKPLPRKPSDYFRDHVTVATSGMNFNAPMRAAIEVLGADKVMFAADYPMERQDEEVAKFAALDLTPDERKRIGEDNARRVFGL
B7: 82 (protein, listed as Rhodopseudomonas palustris)
chain: MAQNETPVIAIEEHYWDPEMVARFPAGENASPFSTLLTELGDVRLRAMDEAGIDVQVLSHGAPAAQKLPPDVAPELTRRVNDRLAEACARFPNRFAAFAALPTPAPEAAARELERCVRDLGFKGAMIHGLTNGLFIDDKRFWPIFEVAEKLDVPIYLHPSVPHADVTRYYYDDYAREFPTVIRPAWGFTVETATQAIRLILSRALESYPRLQIILGHLGETLPFLLWRINQALARPGQTPLDFRKQFCDHFHVTTSGFFSTPALICTMLELGIDRIMFAVDYPYVVNRDGTDWVQQLQISPDDKRKLVGGNARRLLKL
B8: 84 (protein, listed as Mycobacterium rhodesiae)
chain: MASLIALEEHYAWDPASEGNVVATWLRANNGVAYDRLYDRGPLRIEQMDAAGIDFQILSLFDPGVQDEVDAVRAVDLARRANDDLAESVRANPSRFGGFATLATQQPDAAVAEFDRAVTELGLVGGLINGHCQGRYLDDPAYEALFSRAEALGAPIYLHPTTPHPAVMDAWFAPYVGDGLHLASWGFAAETGTHVLRLIYSGLFDKFPRLQMIIGHLGEMLPFAAYRIDRYYGLGGGGTGHTLQHLPSDYLRNNFHVTTSGNFCSPALDCTLDVMGADRVMFSVDYPMDDNQTGADFLASYPMDDTNRRKVASENALRLFGDRIPAALRN
B9: 80 (protein, listed as Cordyceps militaris)
chain: MAAASTPVVVDIHTHMYPPSYIAMLEKRQTIPLVRTFPQADEPRLILLSSELAALDAALADPAAKLPGRPLSTHFASLAQKMHFMDTNGIRVSVISLANPWFDFLAPDEAPGIADAVNAEFSDMCAQHVGRLFFFAALPLSAPVDAVKASIERVKNLKYCRGIILGTSGLGKGLDDPHLLPVFEAVADAKLLVFLHPHYGLPNEVYGPRSEEYGHVLPLALGFPMETTIAVARMYMAGVFDHVRNLQMLLAHSGGTLPFLAGRIESCIVHDGHLVKTGKVPKDRRTIWTVLKEQIYLDAVIYSEVGLQAAIASSGADRLMFGTDHPFFPPIEEDVQGPWDSSRLNAQAVIKAVGEGSSDAAAVMGLNAVRVLSLKAE
B10: 88 (protein, listed as Starkeya novella)
chain: MARKIALEEHFTTPELAGKYVARPTQSDALFADIERRLADFDELRLEMMDRAEIDLMVLSVTTPGVQGVRDTGEAIRLARGANDFLAREVQKRPSRYAGFAHLAMQDAEAAATELERAVRELGFRGALINGQTNGHYLDEDQYAPFWERVQELDVPVYLHPGNMADSPAMFAHRPELGGPIWAWTAETAAHALRLVFGGTFTRFPGAKVILGHMGETLPFLLWRLDSRREFDLGEKLAPDALPSAIIKRNIAVTTSGVCDPAPLVAALQALSDDNVMFSVDYPYEDPQLASKFIETAPIGEETRAKVCHGNAERLLGL
B11: 83 (protein, listed as Mycobacterium rhodesiae)
chain: MALIALEEHYAWSPVSAGNVVGSWLETHNVTAYQRLYDRGPLRLEQMDAAGIDFQILSLFDPGVQDDDDTARAVENARRANDDLAETVRAAPDRFGGFATLAPQDPDAAAAELERAVGELGLVGGLINGHTHGRYLDDPAYLGLFECAQRLGVPIYLHPTTPHPAVMDAWFAPYVKDGLHLASWGFAAETGTHALRLIYSGLFDTFPRLQMILGHLGEMLPYAAYRIDRYYGLGGGDDGGRLARLPSEYLRDNFHVTTSGNFNPVAFACALDVMGPDRLMFSVDYPMDDNVTGAEFLRNLEVDDDVRRKVAGENALQLFGDKIPRR
B12: 77 (protein)
chain: MALIDLHAHAPHPGYYNQHPHWGPFFERHEDGDVKLRVGDWILTLGSPERKALVRAGKGPTVEEYQARWADPKVRLAGMDAAGQNAQVVSVPSHCYMYWAEKEFSVPFATKVNDTFAEYCSAAPDRLMFWAHAALNAPEQAALELRRACTELGAKGLVAGGANFGGLEFDSPELDPVWKVLCDLDLPMFIHGYNQSVTWGKKANDDRYETTAIVGMQYDETRCFWNLVCGGVLDRFPGLKVYITHGGGYVPYQLGRLAQCNGNLDVAHNKKPVLEYLKNNFYFDVELHEVPMRQALIDIIGADRVLYGSNFGGSDAVRHDLTEGLRLSDDDLQKIRWKNACKLLHLDPAKIGEPAKKQAVSA
modifications: Burkholderia xenovorans
B13: 78 (protein, listed as Marinobacter adhaerens)
chain: MALIDLHAHAPHPDYYDQHPHWGPAFELQSDGDIKLRVGHWVLSLGAPERKQALREAHARGETLDVQEYMAKWRDPEHRLASMDAAGQNAQVLSVPSHCYMYWAEPEFGVPFAKKVNDSLAEYCSAAPDRLMFWAHAPLNVPKEAAKEIRRACTELGAKGLVAGGSNFGGLEFDSPEMDPVWEALCDLDLPMFVHGYNQSVTWGEEANTDRYETTAIVGMNYDESKCFWYMINGGVFDRFPNLKVYITHGGGFVPYQLGRMAQTNPNLDTYHNKKPFLEYLKNFYFDVELHEVPMRQAMVEVIGADRVLYGSNFGGSDAVRHDLTDDLKLSQEDLDKIRWKNACDLLHLDPNKLGKVRG
B14: 4 (protein, listed as Lactobacillus buchneri)
chain: MAKVITLEEHFSSQKLGQKMAEVLPKRPIGNVSPKMQDYMQRSLPPEAELEDVTGSRIQWMDQHQISMQILSYGNQNPQNSDPKFAVELTKLANDELAKAVAKAPDRFRAFASLPVSHPTDAAAELKRGVEELGFKGAMLVRPTSQAHPFFDDPFYLPIFEAAANLNVPVYLHPSFPDSQIIDYYYSNGPWDDKVSGILGTAGYGWHTDVGIQTVRLLLSGVFEKYPNLKLISGHWGEFASFALERMDQVMYPETNLSEPISKIYRDHVYVTPSGILTEPQLKFVKDEVGIEHLLYSIDYPYIKPENSGSFIESSPLTDEEKELFAHGNAEKLLQL
B15: 86 (protein, listed as Sphingopyxis alaskensis)
chain: MALGASVASREASAQMAKAPMRKIATEEAFATPELAKAWLEIARSEPNSSLDIPTGILSIFDNPRPGSNQDRFRRQLLDVDAERIRDMDEAGVDMQLLSVTIPGVQIFEPARAGELAVTTNDHLAAAIARRPTRFAGLACFAPHDPVQATREMERAVNALGLKGFIVNSHTQDLYLDDPRFAPVLEAAQSLDCPIYLHPRAPSNGMAAPFRDYSMGGSIWGFGVEAGTHAVRMILSGVFDRYPRLRIVLGHMGEALPFWMWRLDHMAARRAKDGRMKPLSLAPSEYFKRNFAVTTSGFESPDVLDLVIKVAGIENIMWAIDYPYESSRDAVTFIEGADLTASQRASIFHRNAVRHFRLS

A short description of this assay: Saturation mutagenesis of SEQ ID NO:109: dicamba decarboxylation activity of point mutants (CO2 released), fold of backbone (Tables 7, 8, Megatable 1). Particulars: decarboxylation activity (CO2 released) of point mutant vs unmutated backbone protein; backbone SEQ ID NO: 109.
On to B1, for which the “Fold Activity” value is given as 0.9 fold.

In the case of B2, the “Fold Activity” value was determined as 1.4 fold. Turning to B3, the “Fold Activity” value is listed as 0.9 fold.

As to B4, the “Fold Activity” value amounted to 1.1 fold. Consider B5, for which the “Fold Activity” value stood at 1.2 fold. Consider B6, for which the “Fold Activity” value stood at 1.4 fold. In the case of B7, the “Fold Activity” value is 0.9 fold.

For B8, the “Fold Activity” value turned out to be 1 fold. On to B9, for which the “Fold Activity” value came out at 0.8 fold. Take B10: the “Fold Activity” value is 1.3 fold.

Turning to B11, the “Fold Activity” value came out at 1.9 fold. With B12, the “Fold Activity” value is reported as 1.3 fold.

In the case of B13, the “Fold Activity” value is recorded as 1.1 fold. Next, B14: 1 fold; B15: 1.4 fold.

Values taken from patent US20160040149A1, “Compositions Having Dicamba Decarboxylase Activity and Methods of Use” (priority 2013, published 2016).
